± gives the standard deviation of the averaged measurements.
Test: total protein half-life in vivo (active degradation + dilution); higher = more stable protein
[1] = E. coli NCM3722 delta-clpP delta-lon delta-hslV, growth: N-lim chemostat, doubling time 6 h
[2] = E. coli NCM3722 delta-clpP, growth: N-lim chemostat, doubling time 6 h
[3] = E. coli NCM3722 delta-hslV, growth: N-lim chemostat, doubling time 6 h
[4] = E. coli NCM3722 delta-lon, growth: N-lim chemostat, doubling time 6 h
[5] = E. coli NCM3722 delta-smpB, growth: N-lim chemostat, doubling time 6 h
[6] = wild type E. coli NCM3722, growth: C-lim chemostat, doubling time 3 h
[7] = wild type E. coli NCM3722, growth: C-lim chemostat, doubling time 6 h
[8] = wild type E. coli NCM3722, growth: C-lim chemostat, doubling time 12 h
[9] = wild type E. coli NCM3722, growth: N-lim chemostat, doubling time 12 h
[10] = wild type E. coli NCM3722, growth: P-lim chemostat, doubling time 12 h
[11] = wild type E. coli NCM3722, growth: N-lim chemostat, doubling time 6 h
[12] = wild type E. coli NCM3722, growth: P-lim chemostat, doubling time 6 h

Sequence	total protein half-life in vivo [1] [h]	total protein half-life in vivo [2] [h]	total protein half-life in vivo [3] [h]	total protein half-life in vivo [4] [h]	total protein half-life in vivo [5] [h]	total protein half-life in vivo [6] [h]	total protein half-life in vivo [7] [h]	total protein half-life in vivo [8] [h]	total protein half-life in vivo [9] [h]	total protein half-life in vivo [10] [h]	total protein half-life in vivo [11] [h]	total protein half-life in vivo [12] [h]
MSKQLTAQAPVDPIVLGKMGSSYGIRGWLRVFSSTEDAESIFDYQPWFIQKAGQWQQVQLESWKHHNQDMIIKLKGVDDRDAANLLTNCEIVVDSSQLPQLEEGDYYWKDLMGCQVVTTEGYDLGKVVDMMETGSNDVLVIKANLKDAFGIKERLVPFLDGQVIKKVDLTTRSIEVDWDPGF [P0A7X6]	5.56 ± 0.28	3.21	3.38	4.04 ± 1.9	3.79	2.65 ± 0.43	4.72 ± 0.19	7.94 ± 0.8	5.22	3.98 ± 0.42	–	–
MSKQQIGVVGMAVMGRNLALNIESRGYTVSIFNRSREKTEEVIAENPGKKLVPYYTVKEFVESLETPRRILLMVKAGAGTDAAIDSLKPYLDKGDIIIDGGNTFFQDTIRRNRELSAEGFNFIGTGVSGGEEGALKGPSIMPGGQKEAYELVAPILTKIAAVAEDGEPCVTYIGADGAGHYVKMVHNGIEYGDMQLIAEAYSLLKGGLNLTNEELAQTFTEWNNGELSSYLIDITKDIFTKKDEDGNYLVDVILDEAANKGTGKWTSQSALDLGEPLSLITESVFARYISSLKDQRVAASKVLSGPQAQPAGDKAEFIEKVRRALYLGKIVSYAQGFSQLRAASEEYNWDLNYGEIAKIFRAGCIIRAQFLQKITDAYAENPQIANLLLAPYFKQIADDYQQALRDVVAYAVQNGIPVPTFSAAVAYYDSYRAAVLPANLIQAQRDYFGAHTYKRIDKEGVFHTEWLD	5.22 ± 0.18	4.9 ± 0.45	5 ± 0.17	5.58 ± 0.25	4.68 ± 0.083	3.21 ± 0.06	5.85 ± 0.4	10 ± 0.24	8.31 ± 0.24	12.9 ± 1.8	4.73 ± 0.23	6.054 ± 0.042
MSKRLPPLNALRVFDAAARHLSFTRAAEELFVTQAAVSHQIKSLEDFLGLKLFRRRNRSLLLTEEGQSYFLDIKEIFSQLTEATRKLQARSAKGALTVSLLPSFAIHWLVPRLSSFNSAYPGIDVRIQAVDRQEDKLADDVDVAIFYGRGNWPGLRVEKLYAEYLLPVCSPLLLTGEKPLKTPEDLAKHTLLHDASRRDWQTYTRQLGLNHINVQQGPIFSHSAMVLQAAIHGQGVALANNVMAQSEIEAGRLVCPFNDVLVSKNAFYLVCHDSQAELGKIAAFRQWILAKAAAEQEKFRFRYEQ [P0A9F6]	5.93 ± 0.27	–	5.94 ± 0.4	–	5.73 ± 0.34	3.2 ± 0.13	6.59 ± 0.7	11 ± 0.54	12.1 ± 0.34	13.3 ± 1.3	6.86 ± 0.45	5.82 ± 0.081
MSKRRVVVTGLGMLSPVGNTVESTWKALLAGQSGISLIDHFDTSAYATKFAGLVKDFNCEDIISRKEQRKMDAFIQYGIVAGVQAMQDSGLEITEENATRIGAAIGSGIGGLGLIEENHTSLMNGGPRKISPFFVPSTIVNMVAGHLTIMYGLRGPSISIATACTSGVHNIGHAARIIAYGDADVMVAGGAEKASTPLGVGGFGAARALSTRNDNPQAASRPWDKERDGFVLGDGAGMLVLEEYEHAKKRGAKIYAELVGFGMSSDAYHMTSPPENGAGAALAMANALRDAGIEASQIGYVNAHGTSTPAGDKAEAQAVKTIFGEAASRVLVSSTKSMTGHLLGAAGAVESIYSILALRDQAVPPTINLDNPDEGCDLDFVPHEARQVSGMEYTLCNSFGFGGTNGSLIFKKI [P0AAI5]	6.45 ± 1.9	4.94 ± 0.21	4.87 ± 0.28	5.15 ± 0.41	4.89 ± 0.14	3.121 ± 0.02	6.09 ± 0.35	12.1 ± 0.42	8.33 ± 0.17	12.6 ± 0.18	4.89 ± 0.34	6.13 ± 0.29
MSKRYFVTGTDTEVGKTVASCALLQAAKAAGYRTAGYKPVASGSEKTPEGLRNSDALALQRNSSLQLDYATVNPYTFAEPTSPHIISAQEGRPIESLVMSAGLRALEQQADWVLVEGAGGWFTPLSDTFTFADWVTQEQLPVILVVGVKLGCINHAMLTAQVIQHAGLTLAGWVANDVTPPGKRHAEYMTTLTRMIPAPLLGEIPWLAENPENAATGKYINLALL	5.58 ± 0.28	5.37 ± 1.1	4.33 ± 0.7	5.17 ± 0.34	4.64 ± 0.34	3.06 ± 0.18	6.24 ± 0.58	–	9.86 ± 1.2	12.5 ± 0.99	5.44 ± 0.92	5.77 ± 0.12
MSKSDVFHLGLTKNDLQGATLAIVPGDPDRVEKIAALMDKPVKLASHREFTTWRAELDGKPVIVCSTGIGGPSTSIAVEELAQLGIRTFLRIGTTGAIQPHINVGDVLVTTASVRLDGASLHFAPLEFPAVADFECTTALVEAAKSIGATTHVGVTASSDTFYPGQERYDTYSGRVVRHFKGSMEEWQAMGVMNYEMESATLLTMCASQGLRAGMVAGVIVNRTQQEIPNAETMKQTESHAVKIVVEAARRLL	6.83 ± 0.33	6.27 ± 0.78	7.09 ± 0.43	5.95 ± 0.47	5.823 ± 0.029	3.23 ± 0.11	6.246 ± 0.033	13.7 ± 2.1	10.7 ± 0.74	12.4 ± 0.29	5.75 ± 0.092	5.99 ± 0.2
MSKSHPRWRLAKKILTWLFFIAVIVLLVVYAKKVDWEEVWKVIRDYNRVALLSAVGLVVVSYLIYGCYDLLARFYCGHKLAKRQVMLVSFICYAFNLTLSTWVGGIGMRYRLYSRLGLPGSTITRIFSLSITTNWLGYILLAGIIFTAGVVELPDHWYVDQTTLRILGIGLLMIIAVYLWFCAFAKHRHMTIKGQKLVLPSWKFALAQMLISSVNWMVMGAIIWLLLGQSVNYFFVLGVLLVSSIAGVIVHIPAGIGVLEAVFIALLAGEHTSKGTIIAALLAYRVLYYFIPLLLALICYLLLESQAKKLRAKNEAAM	–	–	–	–	4.62 ± 0.87	–	–	–	–	–	–	–

From the supplement of paper PMC11246515
